Test results published in article doi:10.1101/2021.01.28.428001 (bioRxiv, 2021).

What was measured:
[1] = target: 2xFLAG-MBP-CYT (cytosolic domain of NOMO1 fused to maltose binding protein) (human); test: SEC
SEC-MALS = target: the molecule itself; test: SEC-MALS

Row | Molecule | stoichiometry N [1] | stoichiometry N (SEC-MALS)
1 | 2xFLAG-MBP-CYT (cytosolic domain of NOMO1 fused to maltose binding protein) (domain or fragment) | 2 | –
2 | Nodal Modulator 1 (NOMO1), full length, with C-terminal FLAG tag (natural protein, human, UniProt Q15155 32-1222, looked up) SEDIVVGCGGFVKSDVEINYSLIEIKLYTKHGTLKYQTDCAPNNGYFMIPLYDKGDFILKIEPPLGWSFEPTTVELHVDGVSDICTKGGDINFVFTGFSVNGKVLSKGQPLGPAGVQVSLRNTGTEAKIQSTVTQPGGKFAFFKVLPGDYEILATHPTWALKEASTTVRVTNSNANAASPLIVAGYNVSGSVRSDGEPMKGVKFLLFSSLVTKEDVLGCNVSPVPGFQPQDESLVYLCYTVSREDGSFSFYSLPSGGYTVIPFYRGERITFDVAPSRLDFTVEHDSLKIEPVFHVMGFSVTGRVLNGPEGDGVPEAVVTLNNQIKVKTKADGSFRLENITTGTYTIHAQKEHLYFETVTIKIAPNTPQLADIIATGFSVCGQISIIRFPDTVKQMNKYKVVLSSQDKDKSLVTVETDAHGSFCFKAKPGTYKVQVMVPEAETRAGLTLKPQTFPLTVTNRPMMDVAFVQFLASVSGKVSCLDTCGDLLVTLQSLSRQGEKRSLQLSGKVNAMTFTFDNVLPGKYKISIMHEDWCWKNKSLEVEVLEDDMSAVEFRQTGYMLRCSLSHAITLEFYQDGNGRENVGIYNLSKGVNRFCLSKPGVYKVTPRSCHRFEQAFYTYDTSSPSILTLTAIRHHVLGTITTDKMMDVTVTIKSSIDSEPALVLGPLKSVQELRREQQLAEIEARRQEREKNGNEEGEERMTKPPVQEMVDELQGPFSYDFSYWARSGEKITVTPSSKELLFYPPSMEAVVSGESCPGKLIEIHGKAGLFLEGQIHPELEGVEIVISEKGASSPLITVFTDDKGAYSVGPLHSDLEYTVTSQKEGYVLTAVEGTIGDFKAYALAGVSFEIKAEDDQPLPGVLLSLSGGLFRSNLLTQDNGILTFSNLSPGQYYFKPMMKEFRFEPSSQMIEVQEGQNLKITITGYRTAYSCYGTVSSLNGEPEQGVAMEAVGQNDCSIYGEDTVTDEEGKFRLRGLLPGCVYHVQLKAEGNDHIERALPHHRVIEVGNNDIDDVNIIVFRQINQFDLSGNVITSSEYLPTLWVKLYKSENLDNPIQTVSLGQSLFFHFPPLLRDGENYVVLLDSTLPRSQYDYILPQVSFTAVGYHKHITLIFNPTRKLPEQDIAQGSYIALPLTLLVLLAGYNHDKLIPLLLQLTSRLQGVRALGQAASDNSGPEDAKRQAKKQKTRRT | – | 2
